# B1: HDV Ribozyme (parent)
# chain: GGCCGGCAUGGUCCCAGCCUCCUCGCUGGCGCCGGCUGGGCAACAUUCCGAGGGGACCGUCCCCUCGGUAAUGGCGAAUGGGACCCA
# Variants of: B1
# Assay: self-cleavage, relative activity (ratio to wild type); higher = more cleavage; co-transcriptional
row,Variant,self-cleavage
1,C19U C24A,0.0791
2,G17U U47C,0.298
3,G17U U20C,0.0573
4,G17U U20A,0.0378
5,C18G C57A,0.0536
6,C18A A42C,0.0707
7,C18A A42U,0.0437
8,C18U C19G,0.0297
9,C18U C19U,0
10,G17U C32A,0.136
11,G17U C32G,0.0386
12,C18U C44U,0.258
13,C18U C41A,0.597
14,C19A C24U,0.0674
15,C19A G82A,0.113
16,C18G C48U,0
17,C19G G35A,0.0297
18,C18U C58U,0.554
19,C18U G67U,0.665
20,C18U G67A,0.468
21,C18U G67C,0.436
22,C18A A77U,0
23,C18G C75G,0.229
24,C19A U27A,0.312

row,Variant,self-cleavage
1,C19A U27C,0.0536
2,C18U C85G,0.975
3,G17U C21G,0
4,G17U C21A,0.0339
5,G17U C41G,0.0462
6,C19A G80U,0.0513
7,C18G U27C,0.237
8,C18U U79G,0.119
9,C18U C66G,0.813
10,C18A G31C,0.163
11,C19G C48G,0.148
12,C18U U65C,0.831
13,C18G C58U,0.0978
14,C18G C58G,0
15,C18G G54U,0.0563
16,C19U G39C,0.133
17,C18U G34U,0.0455
18,C18U G34A,0.117
19,C18U G34C,0.155
20,C19U A77G,0.253
21,C18U U60G,0.633
22,C18U U60A,0.852
23,C19G G76A,0.0545
24,C18A C61U,0.237

row,Variant,self-cleavage
1,G17U G25A,0.0489
2,G17U G25C,0.0811
3,C19G G31U,0.0723
4,C18A C48U,0.0627
5,C18A G54C,0.189
6,C18A C32U,0.145
7,C18A C32G,0.0875
8,C18A C75A,0.0906
9,C19A G52C,0.125
10,C19G A43G,0.155
11,C19A G31C,0.141
12,C19A G31U,0.192
13,C18A U47A,0.0692
14,G17U G31U,0.0723
15,C19U C22A,0.0886
16,C19U C22U,0.058
17,C19U C63A,0.199
18,C19U G50U,0.159
19,C18A G53U,0.117
20,C18A G53C,0.214
21,C18G C26U,0.388
22,C18U C32U,0.327
23,C18G U47A,0
24,C19G G73A,0.021

row,Variant,self-cleavage
1,C18G C85U,0.095
2,C18G C85A,0.0554
3,C18G C85G,0
4,C18G C86A,0
5,C18U G59U,0.67
6,C18U G59A,0.896
7,C19G G38A,0.0511
8,G17U U72C,0.142
9,C19U A45C,0.0767
10,C19G G67C,0.0287
11,C18G C22U,0.0504
12,C19A G25U,0.0791
13,C19A C57U,0.155
14,C19U C61A,0.243
15,C19G G80U,0.0902
16,C19U C36U,0.0314
17,C18U U20G,0.277
18,C18U U20A,0.0339
19,C18U A45U,0.361
20,C19U A42G,0
21,C19U A42C,0.104
22,C18A C24A,0.163
23,C18A C24U,0.104
24,C19U A70G,0.141

row,Variant,self-cleavage
1,C19U A70C,0.0906
2,C18A G35A,0.199
3,C19U A51U,0.0923
4,C19G C75U,0.161
5,C18G U69C,0.151
6,C18G U69A,0.0489
7,C18G U69G,0.128
8,C18A C33G,0
9,C19A G59A,0.125
10,C19A C22A,0.112
11,C18U U46G,0.277
12,G17U C85A,0.538
13,G17U C85U,0.614
14,G17U C85G,0.554
15,C19G A83G,0.0678
16,C18U G76U,1.05
17,C19G A51U,0.0678
18,C18U G40C,0.281
19,C18U G40A,0.691
20,C19A C36U,0.0468
21,C19A C36G,0.0923
22,C18G A71U,0.0723
23,C18G A71C,0.172
24,C19G A78U,0.0773

row,Variant,self-cleavage
1,C18U G54U,0.661
2,G17U C26A,0.491
3,C19G G39C,0.0978
4,G17U C18G,0.095
5,C19A G73U,0.0631
6,C19A G73A,0.0519
7,G17U C64U,0.521
8,C19G U37A,0.0627
9,C18G G31U,0.0396
10,C19U C86U,0.122
11,C19U C86G,0.116
12,C19U C86A,0.194
13,G17U G53A,0.641
14,G17U G53U,0.42
15,G17U G53C,0.354
16,C19U C85A,0.0378
17,C19G U46C,0.13
18,G17U C30U,0.716
19,C18G U79A,0.0615
20,C19A G34U,0
21,C19G C32A,0.0462
22,C19A A78C,0.0248
23,C19G C36A,0.0277
24,C19U G31A,0.102

row,Variant,self-cleavage
1,C18A C63G,0.0791
2,C19G C33G,0
3,C19G C33A,0.111
4,C18U C21U,0.0911
5,C18U C21A,0.115
6,C18G C84U,0.0386
7,C18G C84G,0.237
8,C18U G38A,0.176
9,C19G G68A,0.021
10,C19G G74A,0.161
11,C18U U23A,0.519
12,C18U U23C,0.415
13,C18G U20A,0.161
14,C18A U23G,0.155
15,C18A U23A,0.122
16,C18G G59U,0.312
17,C18G G59A,0.128
18,C19A G39A,0.114
19,C19A G39C,0
20,C19A A87U,0.223
21,C18A C85U,0.158
22,C18A C85A,0.224
23,C19U A83C,0.217
